From patent US7291492B2, “Histone deacetylase 9” (The Institute of Cancer Research, priority 2001, dated 2007)

System: histone H4 peptide
Test: in-vitro histone deacetylase assay with anti-FLAG immunoprecipitated HDAC, [3H]acetyl-labelled histone H4 peptide
Format: biochemical
Details: FLAG-tagged HDAC from 293T cells, FIG. 5A
Experimental: A. HDAC9 deacetylates histone H4 peptide. 293T cells were transfected with FLAG-tagged HDAC. Whole cell lysates were produced and the HDACs precipitated with anti-FLAG agarose. The beads were assayed for their ability to deacetylate a [^3H]acetyl-labelled peptide corresponding to the N-Terminus of histone H4. Free acetate was extracted and measured by scintillation counting.
Higher activities of HDAC9 have been detected towards peptide substrates derived from histone H3 than from histone H4 (FIGS. 7A and B).

B1: HDAC9: wild-type histone deacetylase 9, a 1069 amino acid polypeptide, class II histone deacetylase (protein)
chain: MHSMISSVDVKSEVPVGLEPISPLDLRTDLRMMMPVVDPVVREKQLQQELLLIQQQQQIQKQLLIAEFQKQHENLTRQHQAQLQEHIKLQQELLAIKQQQELLEKEQKLEQQRQEQEVERHRREQQLPPLRGKDRGRERAVASTEVKQKLQEFLLSKSATKDTPTNGKNHSVSRHPKLWYTAAHHTSLDQSSPPLSGTSPSYKYTLPGAQDAKDDFPLRKTASEPNLKVRSRLKQKVAERRSSPLLRRKDGNVVTSFKKRMFEVTESSVSSSSPGSGPSSPNNGPTGSVTENETSVLPPTPHAEQMVSQQRILIHEDSMNLLSLYTSPSLPNITLGLPAVPSQLNASNSLKEKQKCETQTLRQGVPLPGQYGGSIPASSSHPHVTLEGKPPNSSHQALLQHLLLKEQMRQQKLLVAGGVPLHPQSPLATKERISPGIRGTHKLPRHRPLNRTQSAPLPQSTLAQLVIQQQHQQFLEKQKQYQQQIHMNKLLSKSIEQLKQPGSHLEEAEEELQGDQAMQEDRAPSSGNSTRSDSSACVDDTLGQVGAVKVKEEPVDSDEDAQIQEMESGEQAAFMQQPFLEPTHTRALSVRQAPLAAVGMDGLEKHRLVSRTHSSPAASVLPHPAMDRPLQPGSATGIAYDPLMLKHQCVCGNSTTHPEHAGRIQSIWSRLQETGLLNKCERIQGRKASLEEIQLVHSEHHSLLYGTNPLDGQKLDPRILLGDDSQKFFSSLPCGGLGVDSDTIWNELRSSGAARMAVGCVIELASKVASGELKNGFAVVRPPGHHAEESTAMGFCFFNSVAITAKYLRDQLNISKILIVDLDVHHGNGTQQAFYADPSILYISLHRYDEGNFFPGSGAPNEVGTGLGEGYNINIAWTGGLDPPMGDVEYLEAFRTIVKPVAKEFDPDMVLVSAGFDALEGHTPPLGGYKVTAKCFGHLTKQLMTLADGRVVLALEGGHDLTAICDASEACVNALLGNELEPLAEDILHQSPNMNAVISLQKIIEIQSKYWKSVRMVAVPRGCALAGAQLQEETETVSALASLTVDVEQPFAQEDSRTAGEPMEEEPAL
modifications: left off: a dimerising Fc or GST
notes: wild-type histone deacetylase 9, a 1069 amino acid polypeptide, class II histone deacetylase
For B1, the “histone deacetylase activity relative to HDAC1” value was “about 25%” and the “histone deacetylase activity relative to HDACs 4 and 5” value was roughly 50%.
